Laboratory results as given in article PMC8352940 (2021).
Residue numbers refer to the chain shown, from its start.

Target: SARS-CoV-2 RBD without the Fc fragment (SARS-CoV-2, UniProt P0DTC2 319-541)
Assay: BLI

B1: nCoVmab2 (antibody, V domains shown)
VH: EVQLVQSGGGVVQPGRSLRLSCAASGFTVSSNYMSWVRQAPGKGLEWVSVIYSGGSTYYADSVKGRFTISRDNSKNTLYLQMNSLRAEDTAVYYCARGDGSDDYYYGMDVWGQGTTVTVSS
VL: QAVLTQPSSVSGAPGQRVTISCTGSSSNVGAGYDVHWYQQLPGTAPKLLIYGNSNRPSGVPDRFSGSKSGTSASLAITGLQAEDEADYYCQSYDSSLSGSVFGGGTKLTVL
B1 gave a koff of 4.95e-05 s⁻¹.

B2: nCoVmab1 (antibody, V domains shown)
VH: B1 VH with E1Q, Q6E, V11L, R16G
VL: QSVVTQPPSVSGAQGQRVFISCTGNGANIGMGYDVHWYQQLPGRAPKLLIFGNTNRPSGVPDRFSASRSGTSASLAITGLQTADEADYYCQSYDGNLRASVFGGGTKLTVL
For B2, the koff was 1.01e-05 s⁻¹.
